Assay results published in the supplement of paper PMC9112550, “Optimization of the antimicrobial peptide Bac7 by deep mutational scanning” (BMC Biology, 2022).

The sequences below were run on Escherichia coli TOP10 (assay: shrunken log2 fold change of peptide-encoding DNA abundance (4.5 h post-induction vs induction); higher = less antimicrobial activity (less host growth inhibition)). Conditions: time post-induction: 4.5 h; library: site-saturation at positions 5, 18, 19, 20.
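Note: peptides expressed intracellularly from a pBAD plasmid library in pooled LB shake-flask culture, induced with 0.3% L-arabinose, DNA abundance read by NGS, three biological replicates, DESeq2 with apeglm shrinkage.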

Sequence	shrunken log2 fold change
RRIRRRPPRLPRPRPRPNWCPRP	0.177
RRIRWRPPRLPRPRPRPTLGPRP	0.079
RRIRFRPPRLPRPRPRPDDNPRP	-0.137
RRIRIRPPRLPRPRPRPVKFPRP	-0.0946
RRIRYRPPRLPRPRPRPIDTPRP	-0.0431
RRIRVRPPRLPRPRPRPEAYPRP	-0.0262
RRIRSRPPRLPRPRPRPGTPPRP	0.0374
RRIRKRPPRLPRPRPRPDGQPRP	0.0566
RRIRIRPPRLPRPRPRPDKDPRP	-0.0993
RRIRLRPPRLPRPRPRPSVWPRP	0.158
RRIRFRPPRLPRPRPRPDLDPRP	-0.0913
RRIRKRPPRLPRPRPRPVKHPRP	-0.0571
RRIRCRPPRLPRPRPRPVMSPRP	-0.136
RRIRKRPPRLPRPRPRPICQPRP	-0.0166
RRIRLRPPRLPRPRPRPVEPPRP	0.188
RRIRARPPRLPRPRPRPNKPPRP	-0.0887
RRIRFRPPRLPRPRPRPPLHPRP	0.198
RRIRNRPPRLPRPRPRPHLGPRP	-0.317
RRIRFRPPRLPRPRPRPGCLPRP	-0.0626
RRIRQRPPRLPRPRPRPNSWPRP	0.0283
RRIRCRPPRLPRPRPRPMMTPRP	0.00323
RRIRQRPPRLPRPRPRPDLRPRP	-0.0102
RRIRWRPPRLPRPRPRPRKPPRP	0.188
RRIRGRPPRLPRPRPRPPRLPRP	0.702
RRIRWRPPRLPRPRPRPMHTPRP	0.643

Sequence	shrunken log2 fold change
RRIRRRPPRLPRPRPRPYGIPRP	-0.161
RRIRKRPPRLPRPRPRPGNTPRP	-0.0331
RRIRCRPPRLPRPRPRPKQKPRP	0.0322
RRIRLRPPRLPRPRPRPKEQPRP	0.0445
RRIRIRPPRLPRPRPRPRVMPRP	0.0377
RRIRPRPPRLPRPRPRPCECPRP	-0.014
RRIRIRPPRLPRPRPRPGQMPRP	-0.0223
RRIRWRPPRLPRPRPRPKGAPRP	0.732
RRIRWRPPRLPRPRPRPSYYPRP	-0.292
RRIRARPPRLPRPRPRPDREPRP	-0.0167
RRIRYRPPRLPRPRPRPFDTPRP	-1.81
RRIRQRPPRLPRPRPRPPHTPRP	1.08
RRIRWRPPRLPRPRPRPLCTPRP	0.106
RRIRHRPPRLPRPRPRPRFCPRP	0.0432
RRIRRRPPRLPRPRPRPNKGPRP	0.128
RRIRIRPPRLPRPRPRPITRPRP	0.0378
RRIRSRPPRLPRPRPRPFLCPRP	-0.634
RRIRIRPPRLPRPRPRPIGCPRP	-0.00783
RRIRMRPPRLPRPRPRPGIKPRP	0.274
RRIRQRPPRLPRPRPRPMLFPRP	-0.0627
RRIRARPPRLPRPRPRPPWVPRP	0.254
RRIRLRPPRLPRPRPRPSGNPRP	-0.111
RRIRCRPPRLPRPRPRPHTNPRP	-0.564
RRIRMRPPRLPRPRPRPHPKPRP	0.0698
RRIRQRPPRLPRPRPRPDSAPRP	-0.029

Sequence	shrunken log2 fold change
RRIRGRPPRLPRPRPRPNNWPRP	0.121
RRIRNRPPRLPRPRPRPPYWPRP	0.0294
RRIRIRPPRLPRPRPRPKVDPRP	-0.468
RRIRTRPPRLPRPRPRPTCNPRP	-0.533
RRIRMRPPRLPRPRPRPFNFPRP	-0.598
RRIRRRPPRLPRPRPRPGRMPRP	0.41
RRIRDRPPRLPRPRPRPIGIPRP	0.00854
RRIRTRPPRLPRPRPRPHIFPRP	2.13
RRIRKRPPRLPRPRPRPMLEPRP	0.621
RRIRKRPPRLPRPRPRPVKLPRP	-0.0408
RRIRDRPPRLPRPRPRPKPGPRP	0.654
RRIRERPPRLPRPRPRPWGLPRP	-0.026
RRIRHRPPRLPRPRPRPGWLPRP	0.0986
RRIRCRPPRLPRPRPRPAGCPRP	0.262
RRIRERPPRLPRPRPRPHVHPRP	-0.315
RRIRARPPRLPRPRPRPSLGPRP	0.188
RRIRMRPPRLPRPRPRPQLEPRP	0.0634
RRIRTRPPRLPRPRPRPHYQPRP	-0.782
RRIRPRPPRLPRPRPRPVMKPRP	-0.00931
RRIRARPPRLPRPRPRPCMGPRP	0.00996
RRIRWRPPRLPRPRPRPASVPRP	0.00924
RRIRWRPPRLPRPRPRPLIIPRP	-0.269
RRIRPRPPRLPRPRPRPNPGPRP	0.0588
RRIRDRPPRLPRPRPRPNMTPRP	0.0572
RRIRVRPPRLPRPRPRPPMAPRP	0.228
